Where no end group is shown, it is not given here.
How the values were obtained:
Human gal-1 = target: T1, Human gal-1 (Homo sapiens, UniProt P09382); assay: Gal-1 binding of the isolated phage clones (ELISA), affinity constants against gal-1 or control proteins (HSA, collagen); details: phage clone expressing the peptide; for Affinity 2 Ka^Gal-1 / Ka^Coll / Affinity 1 Ka^Gal-1 / Ka^HSA: Ka = 1/K*d; for Affinity 2 Ka^Gal-1 / Ka^Coll: Coll = collagen; for Affinity 1 Ka^Gal-1 / Ka^HSA: one representative clone per sequence; for Affinity 3 Ka^Gal-1/ ((Ka^HSA + Ka^Coll)/2): specific affinity vs mean of control proteins
T1 construct: purchased Peprotech
Description: Human gal-1 (Peprotech) and control proteins (HSA and collagen) were immobilized on 96-well ELISA plates at a concentration of 10 µg/mL in NaHCO3 0.1 M, pH 8.6, overnight at 4°C. The wells were then blocked with Protein-Free Blocking Buffer (PFBB, Thermo Fisher Scientific, p/a Perbio Science BVBA, Aalst, Belgium), 1 hour at room temperature. Fifty clones issued from each phage display experiment were first screened at one concentration (5 x 10^11 phages/100 µL for PDE1; 10^11 phages/100 µL for PDE2) prepared in Tris buffered saline (TBS: 50 mM Tris-HCl, 150 mM NaCl, pH 7.5) supplemented with 0.5% Tween-20 (TBST). The clones were incubated for 2 hours at room temperature, under mild agitation. To determine the apparent dissociation constant (K*d) of the selected clones, ten serial dilutions of phages (generally ranging from 5x10^12 to 10^7 phages/100 µL) were incubated with gal-1 or control proteins in the same conditions as for the first clones' screening. The bound phages were detected by an incubation (1 hour, room temperature) with horseradish peroxidase (HRP)-conjugated anti-M13 monoclonal antibody (Amersham Pharmacia Biotech Benelux, Roosendaal, The Netherlands) diluted 1:5000 in TBS supplemented with 0.5% BSA. After each incubation step, the wells were rinsed with an automated microplate washer (Beckman Coulter, Analis, Suarlée, Belgium). Finally, the wells were filled with 200 µL/well of 2,2'-azino-bis(3-ethylbenzothiazoline-6-sulphonic acid (ABTS, 22 mg) diammonium salt (Sigma-Aldrich) solution prepared in 50 mM sodium citrate pH 4.0 completed with 0.05% H2O2. The optical density (OD) was measured (405 nm, differential filter: 630 nm) using a microplate reader (StatFax-2100, Awareness Technology, Fisher Bioblock Scientific, Tournai, Belgium).

[1] = Circular dichroism study of secondary structure in distilled water; format: physicochemical; details: non-biotinylated peptides, 1 mM in distilled water, 20 °C and 37 °C
Description: Non-biotinylated peptides dissolved in distilled water at 1 mM were used for structure analysis. Circular Dichroism (CD) spectra were recorded using a ChirascanTM Plus CD Spectrometer (Applied Photophysics Inc., Leatherhead, United Kingdom). The measurements were carried out using 1 mm quartz Suprasil cells from Hellma Analytics (Müllheim, Germany). The spectra were recorded between 180 and 350 nm, with a bandwidth of 0.5 nm, time per point 2 s and three repetitions, both at 20 °C and 37 °C. The CD RMS (Root Mean Square) noise is around 0.03 mdeg at 180 nm. The aqueous solution reference spectra were used as baselines and were automatically subtracted from the CD spectra of the samples.

TPC-1 cells = assay: Cell adhesion assay: TPC-1 cell adhesion to immobilized gal-1; format: cell-based, human; details: 500 nM, TPC-1 adhesion to gal-1, non-biotinylated peptides
Description: Gal-1 (Peprotech) was immobilized on 96-well culture plates at 20 µg/mL overnight at 4°C. After blocking with 0.1% BSA prepared in phosphate buffered saline (PBS, per liter: 8 g NaCl, 0.2 g KCl, 2.31 g Na2HPO4 × 12 H2O 0.2 g KH2PO4, pH 7.4), non-biotinylated peptides (P1, P7 or P1Scr) diluted in RPMI 1640 culture medium at 0.5 µM or 50 µM were pre-incubated with gal-1 for 2 hours. In the meanwhile, TPC-1 cells (10^5 cells/well) were pre-incubated with the desired concentration of peptides in RPMI 1640 culture medium for 30 minutes before seeding them into the wells. The cells were then incubated (37 °C, 5% CO2) with gal-1 immobilized on wells for one hour. The negative control cells were incubated with RPMI 1640 culture medium alone. After washing steps and plate centrifugation between them, cells were fixed 15 minutes with buffered 4% formalin (from Sigma-Aldrich) and washed before staining with 1% crystal violet. Wells were rinsed and crystal violet was solubilized with dimethyl sulfoxide (DMSO, Sigma-Aldrich) before measuring absorbance at 570 nm (differential filter at 630 nm) with a microplate reader. The percentage of adherent cells was obtained by calculating the percentage ratio of OD measured for TPC-1 incubated with peptides over the OD of negative control cells.

[2] = target: T2, gal-1 expressed by human tumor tissues (Homo sapiens, UniProt P09382); assay: Binding of biotinylated peptides to human thyroid biopsies (immunohistochemistry, ImageJ semi-quantitative analysis); details: for staining produced by peptides in healthy thyroids and thyroid adenomas compared to papillary, follicular and anaplastic thyroid cancer: ImageJ analysis of immunohistochemistry microphotographs; for targeting of the papillary areas: biotinylated peptides 20 µM, human papillary thyroid cancer biopsy sections
T2 construct: from tissue; host or cells: paraffin-embedded human thyroid biopsy sections (healthy, inflammatory, adenoma, papillary, follicular, anaplastic)
Description: Immunohistochemistry evaluation was performed on 5 µm thick sections mounted on silane-coated glass slides. The paraffin-embedded tissue specimens were deparaffinized and rehydrated. After unmasking the epitopes in citrate buffer pH 6.0, the endogenous peroxidase activity was blocked with 0.7% H2O2. Sections were then blocked with streptavidin - biotin blocking kit (Vector Labconsult) and with 0.5% casein (Sigma-Aldrich).
The binding of biotinylated peptides to tumor biopsies was validated by using a similar protocol. However, no epitope unmasking was performed, while casein blocking was replaced by PFBB. Endogenous peroxidases were blocked with 1% H2O2. The biotinylated peptides (stock prepared in distilled water) were diluted in TBS at a concentration of 20 µM and incubated with tumor biopsies overnight at 4 °C. The bound peptides were then detected with 5 µg/mL of anti-biotin antibody made in goat (Vector Labconsult) and with 1 µg/mL of biotinylated anti-goat IgG made in horse (both from Vector Labconsult) both diluted in TBS completed with 0.5% BSA […]. After incubation with Vectastain ABC kit (Vector Labconsult), the staining with DAB/H2O2 and Hemalun counterstaining were performed as described above.
Gal-1 staining on immunohistochemistry microphotographs (DM2000 Leica microscope equipped with a DFC 425C camera, Leica Microsystems) was semi-quantitatively analyzed by ImageJ software (National Institutes of Health, USA). The expression of gal-1 was compared in 5 cases of healthy thyroid, 2 cases of inflammatory thyroid (patients with goiter), 6 cases of thyroid adenoma, 6 cases of papillary thyroid cancer, 4 cases of follicular variant of papillary thyroid cancer and 6 cases of anaplastic cancer. The binding of peptides 1 and 7 was compared in 5 cases of healthy thyroid, 2 cases of inflammatory thyroid, 6 cases of thyroid adenoma, 3 cases of papillary thyroid cancer, 3 cases of follicular thyroid cancer and 6 cases of anaplastic thyroid cancer. The total area occupied by brown stained pixels was determined after thresholding the background staining on blank histological slices, where the primary antibody was excluded. The total stained area is then automatically generated after pixel segmentation.

T2 sequence (P09382 whole entry): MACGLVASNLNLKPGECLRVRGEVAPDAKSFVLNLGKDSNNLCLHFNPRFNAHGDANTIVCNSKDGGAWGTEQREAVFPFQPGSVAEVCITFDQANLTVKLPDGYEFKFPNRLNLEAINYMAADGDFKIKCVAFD
T1 sequence (P09382 whole entry): as above

Sequence | Affinity 2 Ka^Gal-1 / Ka^Coll (Human gal-1) | Affinity 1 Ka^Gal-1 / Ka^HSA (Human gal-1) | Affinity 3 Ka^Gal-1/ ((Ka^HSA + Ka^Coll)/2) (Human gal-1) | conformation in aqueous solution (CD signature) [1] | decrease of cell adhesion (TPC-1 cells) | staining produced by peptides in healthy thyroids and thyroid adenomas compared to papillary, follicular and anaplastic thyroid cancer [2] | targeting of the papillary areas [2]
DWSSWVYRDPQT [Peptide P8] | 27.92 | 1.23 | 2.36 |  |  |  | 
HLWGWLYAPSFQ [Peptide P1, HLWGWLYAPSFQ] |  |  |  | random coil state | around 25% | weaker | efficient targeting of the papillary areas
HYSWSWIAYSPG [Peptide P3] | 1.35 | 0.99 | 1.14 |  |  |  | 
SVYVEISWVRTM [Peptide P6] | 1.17 | 1.17 | 1.17 |  |  |  | 
VHWDFRQWWQPS [Peptide P4] | 1.93 | 1.18 | 1.47 |  |  |  | 
YHHSGPYAGPMW [Peptide P5] | 1.58·10^13 | 1.25 | 2.50 |  |  |  | 
YSWHIDIVAPRN [Peptide P7, YSWHIDIVAPRN] | infinite ratio | infinite ratio | infinite ratio | random coil state | ~30% | weaker | efficient targeting of the papillary areas
YTFHFDIFQPHF [Peptide P2] | 8.15 | 121.56 | 25.66 |  |  |  | 
